{"source": "patent US20150307588A1", "key": {"hBMP-10 (human) [1]": {"molecular_target": "hBMP-10 (human) (UniProt O95393)", "sequence (O95393 317-424 limits assumed)": "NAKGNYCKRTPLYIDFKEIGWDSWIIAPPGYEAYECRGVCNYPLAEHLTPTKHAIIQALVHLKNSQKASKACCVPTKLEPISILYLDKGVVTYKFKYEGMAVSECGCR", "test": "cell-based or functional assay"}, "hBMP-9 (human) [2]": {"molecular_target": "hBMP-9 (human) (UniProt Q9UK05)", "sequence (Q9UK05 320-429 limits assumed)": "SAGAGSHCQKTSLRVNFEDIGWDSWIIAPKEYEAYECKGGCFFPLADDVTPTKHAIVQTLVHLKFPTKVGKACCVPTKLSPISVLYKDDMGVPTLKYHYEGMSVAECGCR", "test": "cell-based or functional assay"}, "hBMP-10 (human) [3]": {"molecular_target": "hBMP-10 (human) (UniProt O95393)", "test": "SPR kinetics, captured CHO-cell-derived protein"}, "hBMP-9 (human) [4]": {"molecular_target": "hBMP-9 (human) (UniProt Q9UK05)", "test": "SPR kinetics, captured CHO-cell-derived protein"}}}
{"substance": "hENG(26-586)-hFc, CHO-cell-derived, with N-terminally truncated Fc domain (Fc fusion)", "values": [{"measurement": "IC50 (nM), BRE-luciferase reporter-gene assay in A204 cells", "setting": "hBMP-10 (human) [1]", "result": 7.9, "unit": "nM"}, {"measurement": "IC50 (nM), BRE-luciferase reporter-gene assay in A204 cells", "setting": "hBMP-9 (human) [2]", "result": 0.26, "unit": "nM"}, {"measurement": "Kd", "setting": "hBMP-10 (human) [3]", "result": 490, "unit": "pM"}, {"measurement": "koff", "setting": "hBMP-10 (human) [3]", "result": 0.011, "unit": "s⁻¹"}, {"measurement": "Kd", "setting": "hBMP-9 (human) [4]", "result": 33, "unit": "pM"}, {"measurement": "koff", "setting": "hBMP-9 (human) [4]", "result": 0.0025, "unit": "s⁻¹"}]}
